Measurements published in patent US20230383288, “SYSTEMS, METHODS, AND COMPOSITIONS FOR RNA-GUIDED RNA-TARGETING CRISPR EFFECTORS” (Massachusetts Institute of Technology, published 2023).

Target: T1, DiCas7-11 D429A/D654A (Desulfonema ishimotonii, D429A,D654A)
T1 chain: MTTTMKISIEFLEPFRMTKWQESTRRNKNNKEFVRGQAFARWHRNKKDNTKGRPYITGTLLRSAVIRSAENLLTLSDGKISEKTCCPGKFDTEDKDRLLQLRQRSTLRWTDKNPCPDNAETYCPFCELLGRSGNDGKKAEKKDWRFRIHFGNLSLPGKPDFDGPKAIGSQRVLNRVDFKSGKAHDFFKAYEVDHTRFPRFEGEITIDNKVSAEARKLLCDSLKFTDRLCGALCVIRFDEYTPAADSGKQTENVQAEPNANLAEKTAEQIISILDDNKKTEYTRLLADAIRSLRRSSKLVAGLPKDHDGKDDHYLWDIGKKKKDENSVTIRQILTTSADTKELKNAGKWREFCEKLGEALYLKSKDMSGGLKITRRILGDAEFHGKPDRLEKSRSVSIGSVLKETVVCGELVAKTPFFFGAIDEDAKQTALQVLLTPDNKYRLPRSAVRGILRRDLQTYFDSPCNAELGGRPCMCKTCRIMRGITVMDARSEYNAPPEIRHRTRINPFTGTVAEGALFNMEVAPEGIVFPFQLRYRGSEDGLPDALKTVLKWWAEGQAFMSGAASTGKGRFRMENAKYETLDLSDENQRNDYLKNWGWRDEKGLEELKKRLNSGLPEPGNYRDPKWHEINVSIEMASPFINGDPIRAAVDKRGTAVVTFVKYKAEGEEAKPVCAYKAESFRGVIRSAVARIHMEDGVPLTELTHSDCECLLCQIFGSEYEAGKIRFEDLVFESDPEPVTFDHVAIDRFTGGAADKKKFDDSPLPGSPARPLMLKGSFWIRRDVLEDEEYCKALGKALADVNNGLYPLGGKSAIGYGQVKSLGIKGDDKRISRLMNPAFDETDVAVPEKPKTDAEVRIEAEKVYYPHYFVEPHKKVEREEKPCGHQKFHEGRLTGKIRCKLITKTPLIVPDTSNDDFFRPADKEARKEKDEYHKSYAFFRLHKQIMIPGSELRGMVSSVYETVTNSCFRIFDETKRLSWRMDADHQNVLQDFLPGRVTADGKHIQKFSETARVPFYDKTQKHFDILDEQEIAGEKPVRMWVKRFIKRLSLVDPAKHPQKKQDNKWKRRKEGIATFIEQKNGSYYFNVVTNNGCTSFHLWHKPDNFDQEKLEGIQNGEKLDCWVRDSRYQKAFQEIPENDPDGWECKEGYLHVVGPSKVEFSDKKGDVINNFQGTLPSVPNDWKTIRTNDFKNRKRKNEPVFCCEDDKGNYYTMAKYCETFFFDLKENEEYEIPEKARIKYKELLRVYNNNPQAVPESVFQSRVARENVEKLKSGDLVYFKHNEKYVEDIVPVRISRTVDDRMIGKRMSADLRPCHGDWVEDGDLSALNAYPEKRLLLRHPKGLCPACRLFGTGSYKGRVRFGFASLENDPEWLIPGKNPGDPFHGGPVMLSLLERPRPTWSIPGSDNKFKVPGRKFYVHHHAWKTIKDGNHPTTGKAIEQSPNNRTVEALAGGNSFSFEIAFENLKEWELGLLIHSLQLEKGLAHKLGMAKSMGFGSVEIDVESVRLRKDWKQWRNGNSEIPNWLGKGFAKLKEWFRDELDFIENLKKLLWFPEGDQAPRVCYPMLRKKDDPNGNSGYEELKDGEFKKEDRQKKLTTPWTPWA
Test: structure; cryo-EM 2.45 A, PDB 7WAH; 20 mM Hepes pH 7.0, 150 mM NaCl, 2 mM MgCl2; target pairs with crRNA 1-23 except flipped 4 and 10
Conditions: tags: N-terminal MBP, C-terminal His6
Experimental: A Cas7-11-crRNA-target RNA complex was reconstituted by mixing the purified MBP-Cas7-11 protein, the 39-nucleotide crRNA, and the 25-nucleotide target RNA, at a molar ratio of 1:1.2:1.5. The complex was purified by size-exclusion chromatography on a Superose6 Increase 10/300 column (GE Healthcare), equilibrated with the buffer containing 20 mM Hepes-NaOH, pH 7.0, 150 mM NaCl, 2 mM MgCl₂, and 1 mM DTT. The peak fraction containing Cas7-11-:crRNA-target RNA complex was concentrated to 1.5 A260 units using an Amicon Ultra-4 filter (10 kDa molecular-weight cutoff; Millipore). The samples (3 μl) were then applied to freshly glow-discharged Au 300 mesh R1.2/1.3 grids (Quantifoil) in a Vitrobot Mark IV (FEI) at 4° C. with a waiting time of 10 sec and a blotting time of 4 sec under 100% humidity conditions. The grids were plunge-frozen into liquid ethane cooled at liquid nitrogen temperature.
A model was built using Nautilus and Buccaneer in CCP-EM package and manually built using COOT against the density map sharpened using DeepEMhancer. […] The curve representing model vs. full map was calculated using phenix.mtriage, based on the final model and the full, filtered, and sharpened map. The cryo-EM density maps were calculated with UCSF ChimeraX, and molecular graphics figures were prepared with CueMol (http://www.cuemol.org).

B1: crRNA for structural analysis ; target RNA for structural analysis (ssRNA ; ssRNA)
RNA 1: GGUGAUGUCACGGAACCUUUGUUGUCUUCGACAUGGGUAAU
RNA 2: GGAUUACCCAUGUCGAAGACAACAAAG
**Q.** Does B1 bind?
**A.** Result: binds
